Laboratory results from patent US20220275090A1, “Combination Therapies with Anti-CD38 Antibodies and PARP or Adenosine Receptor Inhibitors” (Janssen Biotech, Inc., priority 2021, published 2022).

Target: T1, mouse CD38 (Mus musculus, UniProt P56528)
T1 sequence (P56528 1-304): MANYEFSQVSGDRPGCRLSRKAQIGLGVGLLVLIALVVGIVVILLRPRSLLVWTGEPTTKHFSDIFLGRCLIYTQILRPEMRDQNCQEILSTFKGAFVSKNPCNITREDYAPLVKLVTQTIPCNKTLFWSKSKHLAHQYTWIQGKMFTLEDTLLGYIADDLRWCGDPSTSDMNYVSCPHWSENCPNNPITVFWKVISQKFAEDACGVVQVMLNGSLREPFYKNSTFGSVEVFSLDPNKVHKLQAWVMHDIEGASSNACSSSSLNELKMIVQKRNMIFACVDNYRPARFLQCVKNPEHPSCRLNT
Assay: Binding to mouse CD38 (statement)

For “Daratumumab: anti-CD38 antibody of IgG1/κ subtype; heavy chain SEQ ID NO: 12, light chain SEQ ID NO: 13”, the “binding to mouse CD38” value was “does not bind”.
